Test results taken from article PMC11573651.

Molecular target: His-NifH^RS (Roseiflexus sp. RS-1 dinitrogenase reductase NifH) (Roseiflexus sp. RS-1)
Assay: not stated; molecular size and quaternary structure of the purified protein (Table 1); the method is in SI Appendix Figs. S8, S9, S14 and S15

A stoichiometry N of 2 was found for “His-NifH^RS (Roseiflexus sp. RS-1 dinitrogenase reductase NifH) (natural protein)” in this work.
